Data on one substance can be found in paper doi:10.1101/2021.10.11.463953.

The assay addresses Acinetobacter sp. Ver3 iron superoxide dismutase (^AV3SodB) (Acinetobacter sp. Ver3). The experiment in a line: crystal structure.

As to “Acinetobacter sp. Ver3 iron superoxide dismutase (^AV3SodB) (enzyme)”, the stoichiometry N (as a rule, a count of units in the complex or per binding partner) was determined as 2.
